Columns and labels:
human soluble IL-6R [1] = molecular target: T1, human soluble IL-6R (human, UniProt P08887 20-357, limits assumed); assay: SPR (Biacore T200), antibody captured on Protein G, human IL-6R as analyte, 37 degrees C, no albumin
T1 construct: Soluble form; also called sIL6R; Human IL-6R
T1 sequence (looked up): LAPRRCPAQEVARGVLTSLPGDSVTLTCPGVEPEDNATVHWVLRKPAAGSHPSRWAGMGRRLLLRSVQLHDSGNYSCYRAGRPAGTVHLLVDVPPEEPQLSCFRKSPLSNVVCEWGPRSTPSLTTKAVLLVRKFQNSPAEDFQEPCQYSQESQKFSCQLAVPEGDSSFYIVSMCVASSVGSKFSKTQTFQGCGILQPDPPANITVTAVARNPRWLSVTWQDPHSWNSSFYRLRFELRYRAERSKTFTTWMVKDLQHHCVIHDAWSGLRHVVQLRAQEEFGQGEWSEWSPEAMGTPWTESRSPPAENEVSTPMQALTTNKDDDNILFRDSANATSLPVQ
Experimental: Binding activities of the produced albumin switch molecules against human IL-6R were evaluated using Biacore T200 (Cytiva). As the running buffer, 50 mM Na Phosphate (pH 7.4), 150 mM NaCl, 0.05% Tween20 was used, and the evaluation was performed at 37 degrees C. First, Protein G (CALBIOCHEM) was used as a ligand-capturing molecule. Protein G (CALBIOCHEM) was solid-phased on a Series S Sensor Chip CM4 (Cytiva) using an Amine Coupling Kit (Cytiva). Antibody solution prepared using the running buffer was allowed to interact with this CM4 sensor chip to capture approximately 200 RU of the antibody. Human IL-6R used in the present measurement was prepared by an approach described in WO2018097307 (Example 3-2). Human IL-6R was diluted to 0, 100, and 400 nM with the running buffer, and allowed to bind to the captured antibody. The chip was regenerated using 3 M MgCl₂, and measurements were performed by repeatedly capturing the antibodies. Dissociation constant (KD) of each antibody for human IL-6R was calculated using Biacore T200 Evaluation Software 2.0. Specifically, the association rate constant ka (L/mol/s) and the dissociation rate constant kd (1/s) were calculated by global fitting of the sensorgrams obtained by measurement with the 1:1 Langmuir binding model, and the dissociation constant KD (mol/L) was calculated from these values.

human soluble IL-6R [2] = molecular target: T1, human soluble IL-6R; assay: in vivo KD in mouse plasma (albumin present), from total antibody, free and bound sIL6R 5 min after sIL6R; antibody 1 mg/kg IV
Experimental: Next, free sIL6R in plasma was measured. The concentration of free sIL6R in plasma was measured on a fully automated ELISA system (Gyrolab xP workstation). First, sIL6R prepared at 23.4, 46.9, 93.8, 188, 375, 750, and 1500 ng/mL using a Protein-Free (PBS) Blocking Buffer (Thermo Scientific) was used as solutions for preparing the calibration curve. Mouse plasma samples were used in the measurements without diluting them. A solution of biotin-labeled H54 diluted to 10 micro g/mL using a Protein-Free (PBS) Blocking Buffer was used as a solution of the sIL6R-capturing molecule. Alexa Fluor (registered trademark) 647-labeled anti-human IL-6R antibody (R&D Systems) diluted to 1 micro g/mL using a Protein-Free (PBS) Blocking Buffer was used as a solution of the human IL-6R-detection molecule. PBS (pH 7.4) containing 0.05% TWEEN was used as a washing solution. The calibration curve solutions, mouse plasma samples, sIL6R-capturing molecule solution, sIL6R-detection molecule solution, and the washing solution were placed onto a PCR plate, and then the PCR plate was sealed with a plate sealer. After the PCR plate and the Bioaffy 200 disc were placed in the Gyrolab xP workstation, measurements were taken. Using the data processed by the Gyros Evaluater 3.6.2.30 software and the calibration curve concentrations, the concentration of free sIL6R in plasma was calculated by logistic regression using the XLfit 5.5.0.5 software.
Additionally, bound sIL6R in plasma was measured. The concentration of bound sIL6R in plasma was measured on an electrospray ionization mass spectrometer connected to a high-performance liquid chromatography (LC/ESI-MS/MS). First, H54//IC17 and sIL6R were mixed, and solutions for preparing the calibration curve of bound sIL6R were prepared at theoretical plasma concentrations of 0.0468, 0.467, 4.60, and 20.1 nmol/mL. The solutions for preparing the calibration curve and 1 or 2 micro L of a plasma sample were added to 75 or 150 micro g of magnetic beads (Magnosphere MS300/Carboxyl, JSR) to which anti-delta GK antibodies were solid-phased, and this was shaken at 25 degrees C. for one hour.

Mouse MOG (R&D system) = molecular target: T2, Mouse MOG (R&D system) (mouse, UniProt Q61885 29-156, limits assumed); assay: SPR (Biacore T200), antibody captured by anti-human Fc antibody, mouse MOG as analyte, 25 degrees C, no albumin
T2 construct: also called mouse soluble MOG; soluble MOG
T2 sequence (looked up): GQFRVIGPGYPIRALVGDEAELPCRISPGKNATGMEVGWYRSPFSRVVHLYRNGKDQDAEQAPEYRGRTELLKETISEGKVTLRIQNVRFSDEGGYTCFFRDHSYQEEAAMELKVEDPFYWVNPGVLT
Experimental: Binding activities of the antibodies produced in Example 10 against mouse MOG were assessed using Biacore T200 (Cytiva).
As the running buffer, 50 mM Na Phosphate (pH 7.4), 150 mM NaCl, 0.05% Tween 20, and 0.005% NaN₃ was used, and the assessment was performed at 25 degrees C. First, anti-human Fc antibody (Cytiva) was used as a ligand-capturing molecule. Anti-human Fc antibody (Cytiva) was solid-phased on a Series S Sensor Chip CM4 (Cytiva) using an Amine Coupling Kit (Cytiva). Antibody solutions prepared using the running buffer was allowed to interact with this CM4 sensor chip to capture approximately 480 RU of the antibody. Mouse MOG (R&D system) was diluted to 0, 10, 40, 160, and 640 nM with the running buffer, and then bound to the captured antibody. The chip was regenerated using 3 M MgCl₂, and measurements were performed by repeatedly capturing antibodies. Dissociation constant (KD) of the respective antibodies for mouse MOG was calculated using Biacore T200 Evaluation Software 2.0. Specifically, the association rate constant ka (L/mol/s) and the dissociation rate constant kd (1/s) were calculated by global fitting of the sensorgrams obtained by measurement with the 1:1 Langmuir binding model, and the dissociation constant KD (mol/L) was calculated from these values.

mouse albumin = molecular target: T3, mouse albumin (mouse, UniProt P07724 25-608); assay: SPR (Biacore T200), antibody captured by anti-human Fc antibody, mouse albumin as analyte, 25 degrees C
T3 construct: also called recombinant mouse Albumin; mouse serum albumin
Experimental: Binding activities of the produced antibodies against mouse albumin were evaluated using Biacore T200 (Cytiva).
As the running buffer, 50 mM Na Phosphate (pH 7.4), 150 mM NaCl, 0.05% Tween20 was used, and the evaluation was performed at 25 degrees C. First, anti-human Fc antibody (Cytiva) was used as a ligand-capturing molecule. Anti-human Fc antibody (Cytiva) was solid-phased on a Series S Sensor Chip CM4 (Cytiva) using an Amine Coupling Kit (Cytiva). Antibody solution prepared using the running buffer was allowed to interact with this CM4 sensor chip to capture approximately 120 RU of the antibody. Mouse albumin (Bioscience) was diluted to 0 and 300 nM with the running buffer and allowed to bind to the captured antibody. The chip was regenerated using 3 M MgCl₂, and measurements were performed by repeatedly capturing the antibodies. Dissociation constant (KD) of each antibody for mouse albumin was calculated using Biacore T200 Evaluation Software 2.0. Specifically, the association rate constant ka (L/mol/s) and the dissociation rate constant kd (1/s) were calculated by global fitting of the sensorgrams obtained by measurement with the 1:1 Langmuir binding model, and the dissociation constant KD (mol/L) was calculated from these values.

Binder	Kd (human soluble IL-6R [1])	koff (human soluble IL-6R [1])	kon (human soluble IL-6R [1])	Kd (human soluble IL-6R [2])	Kd (Mouse MOG (R&D system))	koff (Mouse MOG (R&D system))	kon (Mouse MOG (R&D system))	Kd (mouse albumin)	koff (mouse albumin)	kon (mouse albumin)
H54//IC17 (bispecific antibody, human IgG1, kappa, Heavy chain constant regions lack the C-terminal glycine and lysine; also called anti-human IL-6R/KLH bispecific antibody) heavy 1: QVQLQESGPGLVKPSETLSLTCAVSGYSISDDQAWSWVRQPPGEGLEWIGYISYSGITNYNPSLKGRVTISRDTSKNQFSLKLSSVTAADTAAYYCARSLARTTAMDYWGEGTLVTVSSASTKGPSVFPLAPSSKSTSGGTAALGCLVEDYFPEPVTVSWNSGALTSGVHTFPAVLQSSGLYSLSSVVTVPSSSLGTQTYICNVNHKPSNTKVDERVEPKSCDKTHTCPPCPAPELRRGPSVFLFPPKPKDTLMISRTPEVTCVVVDVSHEDPEVKFNWYVDGVEVHNAKTKPREEQYNSTYRVVSVLTVLHQDWLNGKEYKCKVSNKALPAPIEKTISKAKGQPREPQVCTLPPSREEMTKNQVSLSCAVKGFYPSDIAVEWESNGQPENNYKTTPPVLDSDGSFFLVSKLTVDKSRWQQGNVFSCSVMHEALHNHYTQKSLSLSP light 1: DIQMTQSPSSLSASVGDSVTITCQASQDISSYLNWYQQKPGKAPELLIYYGSELHSGVPSRFSGSGSGTDFTFTISSLEAEDAATYYCQQGNSLPYTFGQGTKVEIERTVAAPSVFIFPPSDRKLKSGTASVVCLLNNFYPREAKVQWKVDNALQSGNSQESVTEQDSKDSTYSLSSTLTLSKADYEKHKVYACEVTHQGLSSPVTKSFNRGEC heavy 2: not shown light 2: QVQLQQSGPQLVRPGASVKISCKASGYSFTSYWMHWVNQRPGQGLEWIGMIDPSYSETRLNQKFKDKATLTVDKSSSTAYMQLSSPTSEDSAVYYCALYGNYFDYWGQGTTLTVSSASVAAPSVFIFPPSDEQLKSGTASVVCLLNNFYPREAKVQWKVDNALQSGNSQESVTEQDSKDSTYSLSSTLTLSKADYEKHKVYACEVTHQGLSSPVTKSFNRGEC	3.41 nM	0.00141 s⁻¹	412000 M⁻¹ s⁻¹	1.3 nM	–	–	–	–	–	–
MOG//IC17 (bispecific antibody, human IgG1, kappa, also called MOG307//IC17; IC17//MOG307) heavy 1: RVTLRESGPTLVKPTQTLTLTCTFSGFSLSTSGVGVGWIRQPPGKALEWLALIFWDDDSHYSPSLKSRLTITKDTSKNQVVLTMTNMDPVDTATYYCARYYFGSGSYFPSYWYFDLWGRGTLVTVSSASTKGPSVFPLAPSSKSTSGGTAALGCLVEDYFPEPVTVSWNSGALTSGVHTFPAVLQSSGLYSLSSVVTVPSSSLGTQTYICNVNHKPSNTKVDERVEPKSCDKTHTCPPCPAPELRRGPSVFLFPPKPKDTLMISRTPEVTCVVVDVSHEDPEVKFNWYVDGVEVHNAKTKPREEQYNSTYRVVSVLTVLHQDWLNGKEYKCKVSNKALPAPIEKTISKAKGQPREPQVCTLPPSREEMTKNQVSLSCAVKGFYPSDIAVEWESNGQPENNYKTTPPVLDSDGSFFLVSKLTVDKSRWQQGNVFSCSVMHEALHNHYTQKSLSLSP light 1: not shown heavy 2: not shown light 2: QVQLQQSGPQLVRPGASVKISCKASGYSFTSYWMHWVNQRPGQGLEWIGMIDPSYSETRLNQKFKDKATLTVDKSSSTAYMQLSSPTSEDSAVYYCALYGNYFDYWGQGTTLTVSSASVAAPSVFIFPPSDEQLKSGTASVVCLLNNFYPREAKVQWKVDNALQSGNSQESVTEQDSKDSTYSLSSTLTLSKADYEKHKVYACEVTHQGLSSPVTKSFNRGEC	–	–	–	–	0.452 nM	6.99e-05 s⁻¹	155000 M⁻¹ s⁻¹	–	–	–
ABD094(H)-H54//IC17 (bispecific antibody, human IgG1, kappa) heavy 1: LAEAKEAANAELDSYGVSDFYKRLIDKAKTVEGVEALKDAILAALPQVQLQESGPGLVKPSETLSLTCAVSGYSISDDQAWSWVRQPPGEGLEWIGYISYSGITNYNPSLKGRVTISRDTSKNQFSLKLSSVTAADTAAYYCARSLARTTAMDYWGEGTLVTVSSASTKGPSVFPLAPSSKSTSGGTAALGCLVEDYFPEPVTVSWNSGALTSGVHTFPAVLQSSGLYSLSSVVTVPSSSLGTQTYICNVNHKPSNTKVDERVEPKSCDKTHTCPPCPAPELRRGPSVFLFPPKPKDTLMISRTPEVTCVVVDVSHEDPEVKFNWYVDGVEVHNAKTKPREEQYNSTYRVVSVLTVLHQDWLNGKEYKCKVSNKALPAPIEKTISKAKGQPREPQVCTLPPSREEMTKNQVSLSCAVKGFYPSDIAVEWESNGQPENNYKTTPPVLDSDGSFFLVSKLTVDKSRWQQGNVFSCSVMHEALHNHYTQKSLSLSP light 1: DIQMTQSPSSLSASVGDSVTITCQASQDISSYLNWYQQKPGKAPELLIYYGSELHSGVPSRFSGSGSGTDFTFTISSLEAEDAATYYCQQGNSLPYTFGQGTKVEIERTVAAPSVFIFPPSDRKLKSGTASVVCLLNNFYPREAKVQWKVDNALQSGNSQESVTEQDSKDSTYSLSSTLTLSKADYEKHKVYACEVTHQGLSSPVTKSFNRGEC heavy 2: not shown light 2: QVQLQQSGPQLVRPGASVKISCKASGYSFTSYWMHWVNQRPGQGLEWIGMIDPSYSETRLNQKFKDKATLTVDKSSSTAYMQLSSPTSEDSAVYYCALYGNYFDYWGQGTTLTVSSASVAAPSVFIFPPSDEQLKSGTASVVCLLNNFYPREAKVQWKVDNALQSGNSQESVTEQDSKDSTYSLSSTLTLSKADYEKHKVYACEVTHQGLSSPVTKSFNRGEC	5.21 nM	0.00133 s⁻¹	255000 M⁻¹ s⁻¹	3.6 nM	–	–	–	14.3 nM	0.00103 s⁻¹	71800 M⁻¹ s⁻¹

From patent publication US20260209363A1 (Chugai, published 2026)
